According to patent US20170275375A1 (published 2017):

Experiments:
[1] = target: T1, human PD1 expressed on cells (activated Jurkat T cells; SpESFX-2D1 transfectants) (human, UniProt Q15116 25-288); test: binding to 2D1 cells transfected with human PD1
T1 construct: whole, on cells; Endogenous on stimulated Jurkat cells; transfected human PD1 on SpESFX-2D1; also called CD279; 2D1 cells

[2] = target: T2, recombinant human PD1-His (human, UniProt Q15116 25-167, limits assumed); test: in vitro binding to recombinant human PD1-His (FIG. 32)
T2 construct: also called recombinant PD1-His; not shown: His tag
T2 sequence (Q15116 25-167 limits assumed): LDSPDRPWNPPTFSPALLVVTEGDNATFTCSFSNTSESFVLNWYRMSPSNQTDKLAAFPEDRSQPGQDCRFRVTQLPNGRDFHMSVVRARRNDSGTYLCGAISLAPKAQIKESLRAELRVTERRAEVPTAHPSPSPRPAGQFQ

T1 sequence (Q15116 25-288): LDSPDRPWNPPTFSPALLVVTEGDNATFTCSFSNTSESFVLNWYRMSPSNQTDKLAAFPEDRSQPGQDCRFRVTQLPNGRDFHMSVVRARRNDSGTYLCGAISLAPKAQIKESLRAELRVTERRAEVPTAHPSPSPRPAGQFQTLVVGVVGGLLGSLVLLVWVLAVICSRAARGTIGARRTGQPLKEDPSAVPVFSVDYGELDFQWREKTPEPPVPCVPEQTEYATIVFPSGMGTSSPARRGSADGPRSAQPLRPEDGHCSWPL

Binder | EC50 [1] | EC50 [2]
humanized anti-PD1 antibody version 5 (V5) (antibody, V domains shown, V5 is V4 with a putative light-chain N-glycosylation site removed; also called hPD1 v5; hPD1 (v5)) VH: QVQLVESGGGLVKPGGSLRLSCAASGFAFSSNDMSWVRQAPGKGLEWVATISGGGINTYYPDSVKGRFTISRDNAKNTLYLQMNSLRAEDTAVYYCARRSNYAWFAYWGQGTPVTVSA VL: DIQLTQSPASLAVSLGQRATISCRASESVDTYGISFMNWFQQKPGQPPKLLISPNQGSGVPARFSGSGSGTDFTLTINSLEAEDTAVYFCQQSKEVPWTFGGGTKLEIK | 0.568 µg/mL | –
2G9 (IMMU-cPD1) (antibody, V domains shown, also called chimeric anti-PD1; chimeric version of 5G9) VH: VKLQESGGGLVKPGGSLKLSCAASGFAFSSNDMSWVRQTPEKRLEWVATISGGGINTYYPDSVKGRFTISRDNARNTLDLQMSSLRSEDTALYYCARRSNYAWFAYWGQGTPVTVSA VL: not shown | 0.168 µg/mL | 0.072 nM
